Results taken from patent US11833164B2, “Methods of treating Fabry disease in patients having a mutation in the GLA gene” (Amicus Therapeutics, Inc., priority 2019, dated 2023).

Test system: mutant form of α-Gal A expressed in HEK-293 cells
Test: HEK assay (GLP HEK / Migalastat Amenability Assay): α-Gal A activity in lysates of transiently transfected HEK-293 cells incubated with or without 10 μM migalastat
Format: cell-based, human
Settings: for Absolute increase (% WT) / Relative increase: 10 μM migalastat versus baseline; for Baseline α-Gal A activity (% WT): absence of migalastat; for Baseline α-Gal A activity (% WT) / 10 μM migalastat α-Gal A activity (% WT): percentage of baseline wild-type α-Gal A activity; for Baseline α-Gal A activity (% WT) / Baseline α-Gal A activity / 10 μM migalastat α-Gal A activity / 10 μM migalastat α-Gal A activity (% WT): mean ± SEM; for Baseline α-Gal A activity / 10 μM migalastat α-Gal A activity: lysates of HEK-293 cells transiently transfected with the mutant form; for Baseline α-Gal A activity: incubated 5 days in absence of migalastat; for 10 μM migalastat α-Gal A activity: incubated 5 days with 10 μM migalastat; for 10 μM migalastat α-Gal A activity (% WT): with 10 μM migalastat, 5 days
Procedure, shortened: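 HEK-293 cells transiently transfected with mutant α-Gal A and incubated with or without 10 μM migalastat; lysate activity given as nmol free 4-MU released per mg protein per hour. Values are mean±SEM.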

B1: L286F (protein)
chain: MQLRNPELHLGCALALRFLALVSWDIPGARALDNGLARTPTMGWLHWERFMCNLDCQEEPDSCISEKLFMEMAELMVSEGWKDAGYEYLCIDDCWMAPQRDSEGRLQADPQRFPHGIRQLANYVHSKGLKLGIYADVGNKTCAGFPGSFGYYDIDAQTFADWGVDLLKFDGCYCDSLENLADGYKHMSLALNRTGRSIVYSCEWPLYMWPFQKPNYTEIRQYCNHWRNFADIDDSWKSIKSILDWTSFNQERIVDVAGPGGWNDPDMLVIGNFGLSWNQQVTQMAFWAIMAAPLFMSNDLRHISPQAKALLQDKDVIAINQDPLGKQGYQLRQGDNFEVWERPLSGLAWAVAMINRQEIGGPRSYTIAVASLGKGVACNPACFITQLLPVKRKLGFYEWTSRLRSHINPTGTVLLQLENTMQMSLKDLL
Absolute increase (% WT): 23.2 % WT | Relative increase: 1.4 | Baseline α-Gal A activity (% WT): 64.5 ± 2.8 % WT | Baseline α-Gal A activity: 29390 ± 1225 nmol/mg/h | 10 μM migalastat α-Gal A activity: 39732 ± 2859 nmol/mg/h | 10 μM migalastat α-Gal A activity (% WT): 87.7 ± 7.3 % WT

B2: L286H (protein)
chain: MQLRNPELHLGCALALRFLALVSWDIPGARALDNGLARTPTMGWLHWERFMCNLDCQEEPDSCISEKLFMEMAELMVSEGWKDAGYEYLCIDDCWMAPQRDSEGRLQADPQRFPHGIRQLANYVHSKGLKLGIYADVGNKTCAGFPGSFGYYDIDAQTFADWGVDLLKFDGCYCDSLENLADGYKHMSLALNRTGRSIVYSCEWPLYMWPFQKPNYTEIRQYCNHWRNFADIDDSWKSIKSILDWTSFNQERIVDVAGPGGWNDPDMLVIGNFGLSWNQQVTQMAHWAIMAAPLFMSNDLRHISPQAKALLQDKDVIAINQDPLGKQGYQLRQGDNFEVWERPLSGLAWAVAMINRQEIGGPRSYTIAVASLGKGVACNPACFITQLLPVKRKLGFYEWTSRLRSHINPTGTVLLQLENTMQMSLKDLL
Absolute increase (% WT): 15.4 % WT | Relative increase: 22.2 | Baseline α-Gal A activity (% WT): 0.8 ± 0.1 % WT | Baseline α-Gal A activity: 359 ± 52 nmol/mg/h | 10 μM migalastat α-Gal A activity: 7960 ± 1511 nmol/mg/h | 10 μM migalastat α-Gal A activity (% WT): 16.2 ± 2.5 % WT

B3: I289L (protein)
chain: MQLRNPELHLGCALALRFLALVSWDIPGARALDNGLARTPTMGWLHWERFMCNLDCQEEPDSCISEKLFMEMAELMVSEGWKDAGYEYLCIDDCWMAPQRDSEGRLQADPQRFPHGIRQLANYVHSKGLKLGIYADVGNKTCAGFPGSFGYYDIDAQTFADWGVDLLKFDGCYCDSLENLADGYKHMSLALNRTGRSIVYSCEWPLYMWPFQKPNYTEIRQYCNHWRNFADIDDSWKSIKSILDWTSFNQERIVDVAGPGGWNDPDMLVIGNFGLSWNQQVTQMALWALMAAPLFMSNDLRHISPQAKALLQDKDVIAINQDPLGKQGYQLRQGDNFEVWERPLSGLAWAVAMINRQEIGGPRSYTIAVASLGKGVACNPACFITQLLPVKRKLGFYEWTSRLRSHINPTGTVLLQLENTMQMSLKDLL
Absolute increase (% WT): 27.5 % WT | Relative increase: 1.3 | Baseline α-Gal A activity (% WT): 96.9 ± 10.5 % WT | Baseline α-Gal A activity: 37941 ± 3208 nmol/mg/h | 10 μM migalastat α-Gal A activity: 49640 ± 3368 nmol/mg/h | 10 μM migalastat α-Gal A activity (% WT): 124.4 ± 11.3 % WT

B4: L286V (protein)
chain: MQLRNPELHLGCALALRFLALVSWDIPGARALDNGLARTPTMGWLHWERFMCNLDCQEEPDSCISEKLFMEMAELMVSEGWKDAGYEYLCIDDCWMAPQRDSEGRLQADPQRFPHGIRQLANYVHSKGLKLGIYADVGNKTCAGFPGSFGYYDIDAQTFADWGVDLLKFDGCYCDSLENLADGYKHMSLALNRTGRSIVYSCEWPLYMWPFQKPNYTEIRQYCNHWRNFADIDDSWKSIKSILDWTSFNQERIVDVAGPGGWNDPDMLVIGNFGLSWNQQVTQMAVWAIMAAPLFMSNDLRHISPQAKALLQDKDVIAINQDPLGKQGYQLRQGDNFEVWERPLSGLAWAVAMINRQEIGGPRSYTIAVASLGKGVACNPACFITQLLPVKRKLGFYEWTSRLRSHINPTGTVLLQLENTMQMSLKDLL
Absolute increase (% WT): 32.9 % WT | Relative increase: 1.4 | Baseline α-Gal A activity (% WT): 66 ± 5.1 % WT | Baseline α-Gal A activity: 28713 ± 3734 nmol/mg/h | 10 μM migalastat α-Gal A activity: 41335 ± 3422 nmol/mg/h | 10 μM migalastat α-Gal A activity (% WT): 98.9 ± 4.3 % WT

B5: A288V (protein)
chain: MQLRNPELHLGCALALRFLALVSWDIPGARALDNGLARTPTMGWLHWERFMCNLDCQEEPDSCISEKLFMEMAELMVSEGWKDAGYEYLCIDDCWMAPQRDSEGRLQADPQRFPHGIRQLANYVHSKGLKLGIYADVGNKTCAGFPGSFGYYDIDAQTFADWGVDLLKFDGCYCDSLENLADGYKHMSLALNRTGRSIVYSCEWPLYMWPFQKPNYTEIRQYCNHWRNFADIDDSWKSIKSILDWTSFNQERIVDVAGPGGWNDPDMLVIGNFGLSWNQQVTQMALWVIMAAPLFMSNDLRHISPQAKALLQDKDVIAINQDPLGKQGYQLRQGDNFEVWERPLSGLAWAVAMINRQEIGGPRSYTIAVASLGKGVACNPACFITQLLPVKRKLGFYEWTSRLRSHINPTGTVLLQLENTMQMSLKDLL
Absolute increase (% WT): 31.7 % WT | Relative increase: 1.4 | Baseline α-Gal A activity (% WT): 82.5 ± 9 % WT | Baseline α-Gal A activity: 32777 ± 3168 nmol/mg/h | 10 μM migalastat α-Gal A activity: 45501 ± 4634 nmol/mg/h | 10 μM migalastat α-Gal A activity (% WT): 114.2 ± 12.4 % WT

B6: A288S (protein)
chain: MQLRNPELHLGCALALRFLALVSWDIPGARALDNGLARTPTMGWLHWERFMCNLDCQEEPDSCISEKLFMEMAELMVSEGWKDAGYEYLCIDDCWMAPQRDSEGRLQADPQRFPHGIRQLANYVHSKGLKLGIYADVGNKTCAGFPGSFGYYDIDAQTFADWGVDLLKFDGCYCDSLENLADGYKHMSLALNRTGRSIVYSCEWPLYMWPFQKPNYTEIRQYCNHWRNFADIDDSWKSIKSILDWTSFNQERIVDVAGPGGWNDPDMLVIGNFGLSWNQQVTQMALWSIMAAPLFMSNDLRHISPQAKALLQDKDVIAINQDPLGKQGYQLRQGDNFEVWERPLSGLAWAVAMINRQEIGGPRSYTIAVASLGKGVACNPACFITQLLPVKRKLGFYEWTSRLRSHINPTGTVLLQLENTMQMSLKDLL
Absolute increase (% WT): 25.8 % WT | Relative increase: 1.2 | Baseline α-Gal A activity (% WT): 114.6 ± 10.6 % WT | Baseline α-Gal A activity: 45790 ± 3395 nmol/mg/h | 10 μM migalastat α-Gal A activity: 55988 ± 2609 nmol/mg/h | 10 μM migalastat α-Gal A activity (% WT): 140.4 ± 10.5 % WT

B7: A288G (protein)
chain: MQLRNPELHLGCALALRFLALVSWDIPGARALDNGLARTPTMGWLHWERFMCNLDCQEEPDSCISEKLFMEMAELMVSEGWKDAGYEYLCIDDCWMAPQRDSEGRLQADPQRFPHGIRQLANYVHSKGLKLGIYADVGNKTCAGFPGSFGYYDIDAQTFADWGVDLLKFDGCYCDSLENLADGYKHMSLALNRTGRSIVYSCEWPLYMWPFQKPNYTEIRQYCNHWRNFADIDDSWKSIKSILDWTSFNQERIVDVAGPGGWNDPDMLVIGNFGLSWNQQVTQMALWGIMAAPLFMSNDLRHISPQAKALLQDKDVIAINQDPLGKQGYQLRQGDNFEVWERPLSGLAWAVAMINRQEIGGPRSYTIAVASLGKGVACNPACFITQLLPVKRKLGFYEWTSRLRSHINPTGTVLLQLENTMQMSLKDLL
Absolute increase (% WT): 19.9 % WT | Relative increase: 1.4 | Baseline α-Gal A activity (% WT): 56.8 ± 6.3 % WT | Baseline α-Gal A activity: 22208 ± 1755 nmol/mg/h | 10 μM migalastat α-Gal A activity: 30458 ± 2381 nmol/mg/h | 10 μM migalastat α-Gal A activity (% WT): 76.7 ± 7.4 % WT

B8: I289T (protein)
chain: MQLRNPELHLGCALALRFLALVSWDIPGARALDNGLARTPTMGWLHWERFMCNLDCQEEPDSCISEKLFMEMAELMVSEGWKDAGYEYLCIDDCWMAPQRDSEGRLQADPQRFPHGIRQLANYVHSKGLKLGIYADVGNKTCAGFPGSFGYYDIDAQTFADWGVDLLKFDGCYCDSLENLADGYKHMSLALNRTGRSIVYSCEWPLYMWPFQKPNYTEIRQYCNHWRNFADIDDSWKSIKSILDWTSFNQERIVDVAGPGGWNDPDMLVIGNFGLSWNQQVTQMALWATMAAPLFMSNDLRHISPQAKALLQDKDVIAINQDPLGKQGYQLRQGDNFEVWERPLSGLAWAVAMINRQEIGGPRSYTIAVASLGKGVACNPACFITQLLPVKRKLGFYEWTSRLRSHINPTGTVLLQLENTMQMSLKDLL
Absolute increase (% WT): 36.7 % WT | Relative increase: 2.0 | Baseline α-Gal A activity (% WT): 38.6 ± 4.8 % WT | Baseline α-Gal A activity: 15033 ± 1450 nmol/mg/h | 10 μM migalastat α-Gal A activity: 29673 ± 2480 nmol/mg/h | 10 μM migalastat α-Gal A activity (% WT): 75.3 ± 7.9 % WT
